The target of this assay is OPTN Δ1-394 in pCMV-BD (mammalian two-hybrid fusion) (UniProt Q96CV9). As to the kind of experiment: mammalian two-hybrid (luciferase reporter). More on the design: unit not given here. Conditions: HEK293 cells; 48 h after transfection; n = 3; parent: est. 6.5; read off a plot. In general terms: In a reporter assay the amount or activity of a reporter protein is the signal.
Chain of UniProt Q96CV9 (Q96CV9 395-577, stated change not applied): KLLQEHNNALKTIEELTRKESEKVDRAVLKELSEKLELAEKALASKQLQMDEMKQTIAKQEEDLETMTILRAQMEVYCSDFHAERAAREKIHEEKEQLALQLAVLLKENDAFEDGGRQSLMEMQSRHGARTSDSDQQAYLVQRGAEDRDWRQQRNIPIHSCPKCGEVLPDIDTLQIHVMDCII
On to “E3-14.7K wild type in pCMV-AD (mammalian two-hybrid fusion) R17D; L18Y; L19K; E20D; R21E”, for which the response was determined as 2.8.

Turning to “E3-14.7K wild type in pCMV-AD (mammalian two-hybrid fusion) L7D; E8Y; L9K; G11E”, the response came out at 6.

As for “E3-14.7K wild type in pCMV-AD (mammalian two-hybrid fusion) M82D; V83Y; G84K; E85D; K86E”, the response was 0.2.

On to “E3-14.7K wild type in pCMV-AD (mammalian two-hybrid fusion) H42D; Q43Y; C44K; K45D; R46E”, for which the response came to 0.1.

Take “E3-14.7K wild type in pCMV-AD (mammalian two-hybrid fusion) E27D; R28Y; E29K; R30D; L31E”: the response worked out at 4.5.

Take “E3-14.7K wild type in pCMV-AD (mammalian two-hybrid fusion) T2D; E3Y; S4K; L5D; D6E”: the response amounted to 5.1.

Regarding “E3-14.7K wild type in pCMV-AD (mammalian two-hybrid fusion) H102D; F103Y; P104K; Y105D; Q106E”, the response was 11.

For “E3-14.7K wild type in pCMV-AD (mammalian two-hybrid fusion) T62D; T63Y; T64K; G65D; N66E”, the response came to 0.5.

For “E3-14.7K wild type in pCMV-AD (mammalian two-hybrid fusion) I12D; N13Y; T14K; E15D; Q16E”, the response was determined as 4.6.

For the substance “E3-14.7K wild type in pCMV-AD (mammalian two-hybrid fusion) R22D; K23Y; A24K; A25D; S26E”, the response was 2.9.

As for “E3-14.7K wild type in pCMV-AD (mammalian two-hybrid fusion) P87D; I88Y; T89K; V90D; T91E”, the response worked out at 0.6.

In the case of “E3-14.7K wild type in pCMV-AD (mammalian two-hybrid fusion) M38Y; V39K; N40D; L41E”, the response was determined as 2.2.

(Values after paper PMC3366936.)
